Measurements reported in PMC4323659 (Scientific Reports, 2015).

What was measured:
VmoLac [1] = molecular target: T1, VmoLac (Vulcanisaeta moutnovskia, UniProt F0QXN6); format: biochemical
T1 construct: gene VMUT_2255; full length, 315 residues; Strep tag removed by TEV protease; E. coli BL21(DE3)-pGro7/GroEL; homodimer; bi-cobalt enzyme

VmoLac [2] = molecular target: T1, VmoLac; format: binding
CCCCCCCC(=O)NC1CCOC1=O = test: purified protein; conditions: pH 8.3; 25.0 °C
CCCC1CCC(=O)O1 = test: purified protein; conditions: pH 8.3; 25.0 °C
[3] = test system: CCCCCC(=O)CC(=O)N[C@H]1CCOC1=O; test: purified protein; conditions: pH 8.3; 25.0 °C
CCCCCC1CCC(=O)O1 = test: purified protein; conditions: pH 8.3; 25.0 °C
CCCCCCCC1CCCC(=O)O1 = test: purified protein; conditions: pH 8.3; 25.0 °C
CCCCC1CCCC(=O)O1 = test: purified protein; conditions: pH 8.3; 25.0 °C
CCCCCCC1CCCC(=O)O1 = test: purified protein; conditions: pH 8.3; 25.0 °C
CCC1CCC(=O)O1 = test: purified protein; conditions: pH 8.3; 25.0 °C
CCCCCCCCC1CCC(=O)O1 = test: purified protein; conditions: pH 8.3; 25.0 °C
[4] = test system: CCCCCCCC(=O)CC(=O)N[C@H]1CCOC1=O; test: purified protein; conditions: pH 8.3; 25.0 °C

How did the Km (VmoLac [1]; HEPES 50 mM pH 8, NaCl 150 mM, CoCl2 0.2 mM, 25°C) turn out when `CCOP(=O)(OCC)Oc1ccc([N+](=O)[O-])cc1` [I, ethyl-paraoxon] was run?
The Km was 581 ± 61 µM.

With `CC(=O)Oc1ccc([N+](=O)[O-])cc1` [VIII, pNP-Acetate] as the molecule, how does the “KM (μM)” value (VmoLac [1]) read?
The value was 4 471 ± 593 μM.

How did the “X-ray crystal structure, soaked crystal, 2.0 Å” value (VmoLac [2]) turn out when `CCCCCCCC(=O)CC(=O)N[C@H]1CCOC1=O` [XVI, 3-oxo C10 AHL] was run?
The value was “Crystals of VmoLac were soaked with 3-oxo-C10 AHL, and the lactone sits”.

“VmoLac (Vulcanisaeta moutnovskia 768-28)” was tested. Which Km (CCCCCCCC(=O)NC1CCOC1=O) did it give?
The Km was 262 ± 54 µM.

And the kcat/Km (CCCCCCCC(=O)NC1CCOC1=O)?
Its kcat/Km is 2230 ± 480 M⁻¹ s⁻¹.

What about the Km (CCCC1CCC(=O)O1) of the same molecule?
The Km was 872 ± 220 µM.

What about the kcat/Km (CCCC1CCC(=O)O1) of the same molecule?
The kcat/Km was 31200 ± 8600 M⁻¹ s⁻¹.

And the Km [3]?
The Km was 186 ± 37 µM.

And the kcat/Km [3]?
Its kcat/Km is 1880 ± 380 M⁻¹ s⁻¹.

And the Km (CCCCCC1CCC(=O)O1)?
Its Km is 47 ± 11 µM.

And the kcat/Km (CCCCCC1CCC(=O)O1)?
Its kcat/Km is 948000 ± 218000 M⁻¹ s⁻¹.

And the K0.5 (CCCCCCCC1CCCC(=O)O1)?
The K0.5 was 839 ± 13 µM.

And the Km (CCCCC1CCCC(=O)O1)?
The Km was 1220 ± 59 µM.

And the kcat/Km (CCCCC1CCCC(=O)O1)?
Its kcat/Km is 72900 ± 3700 M⁻¹ s⁻¹.

What about the Km (CCCCCCC1CCCC(=O)O1) of the same molecule?
Its Km is 105 ± 24 µM.

And the kcat/Km (CCCCCCC1CCCC(=O)O1)?
Its kcat/Km is 580000 ± 132000 M⁻¹ s⁻¹.

And the Km (CCC1CCC(=O)O1)?
Its Km is 3709 ± 497 µM.

What about the kcat/Km (CCC1CCC(=O)O1) of the same molecule?
Its kcat/Km is 30300 ± 4600 M⁻¹ s⁻¹.

What about the K0.5 (CCCCCCCCC1CCC(=O)O1) of the same molecule?
Its K0.5 is 2.1 ± 0.6 µM.

And the kcat/Km (CCCCCCCCC1CCC(=O)O1)?
Its kcat/Km is 77700 ± 24000 M⁻¹ s⁻¹.

And the Km [4]?
Its Km is 231 ± 55 µM.

And the kcat/Km [4]?
The kcat/Km was 2050 ± 500 M⁻¹ s⁻¹.
